Kd data for 7 molecules are collected here from patent US20260356982 (published 2026).

Positions count from the first letter of the chain named.

The labels stand for the following.
T1: FLAG tag
T1 chain: DYKDDDDK

B1: V7 scFv (antibody, V domains shown)
VH: QVQLVQSGAEVKKPGASVKVSCKASGYSFTTYTMHWVRQAPGQGLEWMGYINPSSGYAAYNQKFQGRVTMTADKSTSTAYMELSSLRSEDTAVYYCAREKFYGYDYWGQGTTVTVSS
VL: DVVMTQSPDSLAVSLGERATINCKSSQSIVHRNGNTYLEWYQLKPGQPPKLLIYKVSNRFSGVPDRFSGSGSGTDFTLTISSLQAEDVAVYYCFQGSHVPYTFGGGTKLEIK
B2: V4 scFv (antibody, V domains shown)
VH: B1 VH with M34I, M48I, M70L
VL: B1 VL with L43Q
B3: V3 scFv (antibody, V domains shown)
VH: B1 VH with M34I, M48I, M70L
VL: B1 VL
B4: Parental (mouse VH/VL, human constant regions) (antibody, V domains shown)
VH: QVQLQQSAGELARPGASVKMSCKASGYSFTTYTIHWVKQRPGQGLEWIGYINPSSGYAAYNQNFKDETTLTADKSSSTAYMQLSSLTSEDSAVYYCAREKFYGYDYWGQGTTLTVSS
VL: DVLMTQLPLSLPVSLGDQASISCRSSQSIVHRNGNTYLEWYLLKPGQSPKLLIYKVSNRFSGVPDRFSGSGSGTDFTLKISRVEAEDLGVYYCFQGSHVPYTFGGGTKLEIK
B5: V3 IgG (antibody, V domains shown)
VH: B1 VH with M34I, M48I, M70L
VL: B1 VL
B6: V7 IgG (antibody, V domains shown)
VH: B1 VH
VL: B1 VL
B7: V4 IgG (antibody, V domains shown)
VH: B1 VH with M34I, M48I, M70L
VL: B1 VL with L43Q

For the first test, the target named is T1, FLAG tag. The test is described as follows: SPR.
Molecule B1 displayed a Kd of 15 nM. Molecule B2 registered a Kd of 22 nM. On the same count and under the same terms, then B3, with 19 nM.

The next test deals with T1, FLAG tag. The test can be described thus: SPR bivalent.
In turn, B4 returned a Kd of 0.96 nM. B5 came in with a Kd of 1 nM. Regarding B6, the Kd amounted to 1.3 nM. In turn, B7 showed a Kd of 0.91 nM.
